Source: the Human Domainome abundance scans (Beltran et al. 2025)

B1: Cullin-9, residues 2234 to 2275; numbered along this chain, Q8IWT3 (parent)
chain: KRCPSCQAPIEKNEGCLHMTCAKCNHGFCWRCLKSWKPNHKD
B2: F-BAR and double SH3 domains protein 1, residues 467 to 528; numbered along this chain, Q86WN1 (parent)
chain: RALPCPAHVVFRYQAGREDELTITEGEWLEVIEEGDADEWVKARNQHGEVGFVPERYLNFPD

Variants of: B1
Test: abundance fitness (aPCA) (normalised: wild type 0, dead -1); higher = more abundant; growth selection in yeast, the domain comes from the species named
Conditions: Homo sapiens

Abundance fitness: each site, then its substitutions
K1: E -0.586; H -0.436; F -0.735; I 0.164; G -0.815; L -0.493; M -0.162; Q -0.691; S -0.756; R -0.948; C -1.12

Variants of: B2
Test: as above
Conditions: Homo sapiens

Abundance fitness of substitutions, site by site:
P61: N -0.042; L 0.004; M -0.088; I 0.091; D -0.007; A -0.03; S 0.091; W -0.174; Y -0.303; V 0.001; H -0.249; Q 0.081; E -0.111; G 0.042; R -0.09; K 0.026
N59: V -0.078; L -0.159; G -0.096; S -0.036; M -0.117; H 0.003; I -0.079; W -0.242; Q 0.018; F -0.091; P -0.977; C -0.036; R 0.066; A 0.054; K -0.005; E 0.028; T 0.006
F60: Q -0.778; P -0.466; R -0.329; D -0.768; M -0.223; E -0.561; V -0.157; N -0.531; I -0.154; G -0.555; A -0.535; K -0.533; C -0.275; W -0.064; T -0.499; L -0.213
E55: L 0.059; F -0.165; K -0.02; N -0.055; A -0.042; D -0.057; T 0.026; R 0.038; Q -0.138; S -0.069; P -0.123; Y -0.196; W -0.151; G -0.132; M 0.035; V 0.054; C -0.02; H -0.133
D62: W -0.356; E 0.114; Q -0.276; F -0.399; H 0.011; N -0.201; M -0.181; S 0; I -0.435; L -0.151; T 0.028; P -0.235; A 0.012; Y -0.17; R -0.309; K -0.148; G -0.057; C 0.111
Y57: I -0.309; M -0.041; P -0.613; Q -0.292; T 0.07; A 0.102; D -0.161; F -0.006; K -0.231; G -0.44; W -0.281; H 0.208; S 0.123; E -0.595; L -0.023; R -0.373; V 0.103; N 0.109
R56: G -0.125; H -0.118; T 0.005; M -0.126; S 0.052; C -0.012; L -0.117; Y -0.174; W -0.263; A 0.035; D -0.074; Q 0.012; K 0.033; E 0.053; P -0.129; F -0.164; V -0.096
L58: W -0.829; P -0.946; S -0.65; K -1.01; G -0.73; A -0.743; Q -0.819; E -0.951; R -0.859; F -0.902; M -0.574; H -1.12; V -0.267; I -0.088; T -0.602; C -0.499; N -1.02
P54: W -0.117; H -0.017; M -0.009; Y -0.14; S -0.126; D -0.539; V -0.638; F -0.287; I -0.426; R 0.012; T -0.831; N 0.198; G -0.299; A -0.2; C -0.001; L -0.016; E -0.509; Q -0.117; K -0.075
